PMC11410649 (Nature, 2024)
Read-outs that look alike come from different tables or passages of the source.

Tests used:
canine NPR1 = canine NPR1 (Canis lupus familiaris, UniProt A0A8I3MHU3); experiment: cell-based or functional assay
[1] = molecular target: T1, cynomolgus monkey NPR1 on HEK293 cells (Macaca fascicularis); experiment: flow cytometry on cells
T1 chain: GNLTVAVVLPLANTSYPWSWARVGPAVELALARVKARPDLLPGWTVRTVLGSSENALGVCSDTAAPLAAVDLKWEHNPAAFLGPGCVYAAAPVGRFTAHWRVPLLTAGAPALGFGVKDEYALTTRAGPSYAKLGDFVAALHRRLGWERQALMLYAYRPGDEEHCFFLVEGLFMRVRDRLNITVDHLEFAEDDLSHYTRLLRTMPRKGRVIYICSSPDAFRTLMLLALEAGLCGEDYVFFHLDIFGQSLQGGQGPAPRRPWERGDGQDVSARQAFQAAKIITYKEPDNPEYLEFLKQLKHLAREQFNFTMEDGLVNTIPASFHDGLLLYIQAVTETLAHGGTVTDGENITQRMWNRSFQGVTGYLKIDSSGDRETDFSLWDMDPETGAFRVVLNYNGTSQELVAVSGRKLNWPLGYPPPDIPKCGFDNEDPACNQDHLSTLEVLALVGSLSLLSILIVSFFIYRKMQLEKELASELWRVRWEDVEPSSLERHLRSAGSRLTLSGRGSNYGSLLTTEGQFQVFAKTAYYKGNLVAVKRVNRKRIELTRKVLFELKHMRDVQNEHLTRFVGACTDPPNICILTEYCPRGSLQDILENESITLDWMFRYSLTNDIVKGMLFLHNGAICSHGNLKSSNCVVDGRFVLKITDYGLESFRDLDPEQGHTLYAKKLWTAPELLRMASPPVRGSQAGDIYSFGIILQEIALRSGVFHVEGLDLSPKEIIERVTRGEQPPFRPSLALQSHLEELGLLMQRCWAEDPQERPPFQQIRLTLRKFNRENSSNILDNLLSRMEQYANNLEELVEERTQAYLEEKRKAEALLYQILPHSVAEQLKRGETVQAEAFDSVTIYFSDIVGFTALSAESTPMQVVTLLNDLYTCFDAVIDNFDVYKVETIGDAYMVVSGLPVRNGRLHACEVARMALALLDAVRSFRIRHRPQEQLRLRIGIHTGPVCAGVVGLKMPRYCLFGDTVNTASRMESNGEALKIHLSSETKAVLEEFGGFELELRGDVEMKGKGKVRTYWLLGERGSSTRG

[2] = molecular target: T2, human NPR1 on HEK293 cells (Homo sapiens, UniProt P16066); experiment: flow cytometry on cells
[3] = molecular target: T3, monkey NPR1 extracellular domain with C-terminal MycMycHis (Macaca fascicularis); experiment: SPR
T3 chain: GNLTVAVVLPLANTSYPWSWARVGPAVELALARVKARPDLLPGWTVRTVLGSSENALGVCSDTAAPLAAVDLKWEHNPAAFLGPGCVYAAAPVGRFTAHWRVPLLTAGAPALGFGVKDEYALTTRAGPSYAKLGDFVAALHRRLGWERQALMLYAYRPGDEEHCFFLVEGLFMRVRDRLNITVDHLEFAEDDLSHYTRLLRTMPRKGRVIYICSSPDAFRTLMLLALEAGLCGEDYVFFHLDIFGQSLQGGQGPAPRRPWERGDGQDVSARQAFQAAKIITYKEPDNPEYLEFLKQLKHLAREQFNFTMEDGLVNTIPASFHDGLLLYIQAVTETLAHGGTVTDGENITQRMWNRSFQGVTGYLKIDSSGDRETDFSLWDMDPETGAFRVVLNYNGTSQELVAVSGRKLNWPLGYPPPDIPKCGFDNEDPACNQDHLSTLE

[4] = molecular target: NPR3 extracellular domain with C-terminal MycMycHis (Homo sapiens, UniProt P17342); experiment: SPR
Chain of NPR3 extracellular domain with C-terminal MycMycHis (P17342 27-481): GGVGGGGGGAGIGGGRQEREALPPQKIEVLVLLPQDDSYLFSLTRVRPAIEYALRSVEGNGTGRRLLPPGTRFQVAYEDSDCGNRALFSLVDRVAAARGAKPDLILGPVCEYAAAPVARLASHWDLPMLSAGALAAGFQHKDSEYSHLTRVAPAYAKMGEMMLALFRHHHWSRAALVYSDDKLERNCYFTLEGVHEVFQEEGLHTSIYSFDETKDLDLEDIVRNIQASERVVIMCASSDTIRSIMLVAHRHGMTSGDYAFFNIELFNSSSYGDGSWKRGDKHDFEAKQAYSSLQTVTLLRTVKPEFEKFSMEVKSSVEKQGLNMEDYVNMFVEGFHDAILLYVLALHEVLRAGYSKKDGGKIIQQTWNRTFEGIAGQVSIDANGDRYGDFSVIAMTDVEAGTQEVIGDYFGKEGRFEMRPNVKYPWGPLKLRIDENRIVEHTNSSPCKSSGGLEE

[5] = molecular target: NPR2 extracellular domain with C-terminal MycMycHis (Homo sapiens, UniProt P20594); experiment: SPR
Chain of NPR2 extracellular domain with C-terminal MycMycHis (P20594 23-458): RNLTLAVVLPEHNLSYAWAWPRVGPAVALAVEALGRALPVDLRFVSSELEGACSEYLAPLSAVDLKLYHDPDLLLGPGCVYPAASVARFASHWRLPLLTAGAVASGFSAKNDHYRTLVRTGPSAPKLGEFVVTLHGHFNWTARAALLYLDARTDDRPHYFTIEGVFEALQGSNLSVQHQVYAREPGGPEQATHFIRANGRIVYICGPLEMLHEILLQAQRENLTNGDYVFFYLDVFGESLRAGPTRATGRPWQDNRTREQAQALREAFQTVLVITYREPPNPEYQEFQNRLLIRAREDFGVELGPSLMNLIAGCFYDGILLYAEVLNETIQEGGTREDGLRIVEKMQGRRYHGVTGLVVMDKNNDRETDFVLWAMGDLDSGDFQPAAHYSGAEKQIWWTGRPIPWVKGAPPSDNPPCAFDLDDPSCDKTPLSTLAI

[6] = molecular target: T4, atrial natriuretic peptide (human, UniProt P01160); experiment: SPR
T4 chain: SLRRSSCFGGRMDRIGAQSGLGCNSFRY

mouse NPR1 protein = mouse NPR1 protein (mouse, UniProt P18293); experiment: SPR
Chain of mouse NPR1 protein (P18293 29-469): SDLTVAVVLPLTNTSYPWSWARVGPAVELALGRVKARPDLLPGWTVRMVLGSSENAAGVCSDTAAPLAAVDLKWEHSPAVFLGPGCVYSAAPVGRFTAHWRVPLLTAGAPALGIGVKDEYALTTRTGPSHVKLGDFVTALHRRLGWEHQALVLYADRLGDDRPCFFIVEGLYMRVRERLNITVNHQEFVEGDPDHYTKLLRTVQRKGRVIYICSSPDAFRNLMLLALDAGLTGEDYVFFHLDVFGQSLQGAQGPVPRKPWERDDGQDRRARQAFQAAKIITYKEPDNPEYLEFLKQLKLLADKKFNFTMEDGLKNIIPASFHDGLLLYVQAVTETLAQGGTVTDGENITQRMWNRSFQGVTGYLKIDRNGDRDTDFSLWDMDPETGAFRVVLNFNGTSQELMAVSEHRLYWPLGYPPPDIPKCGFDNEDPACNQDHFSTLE

[7] = molecular target: T1, cynomolgus monkey NPR1 on HEK293 cells; experiment: flow cytometry on cells
[8] = molecular target: T2, human NPR1 on HEK293 cells; experiment: flow cytometry on cells; remark: listed apart in the source
[9] = molecular target: T1, cynomolgus monkey NPR1 on HEK293 cells; experiment: flow cytometry on cells
[10] = molecular target: T2, human NPR1 on HEK293 cells; experiment: flow cytometry on cells; remark: listed apart in the source

activation of canine NPR1 (Supplementary Fig. 1); EC50 (canine NPR1): > 100 nM
EC50 [1]: 2.27 nM
EC50 [2]: 4.58 nM
binding result [3]: binds
binding result [4]: no binding
binding result [5]: no binding
binding result [6]: no binding
binding result (mouse NPR1 protein): no binding
EC50 [7]: 2.42 nM
EC50 [8]: 4.56 nM
EC50 [9]: 3.01 nM
EC50 [10]: 5.69 nM
B1: REGN5381 (antibody, V domains shown)
VH: QVQLVQSGAEVKKPGASVTVSCKASGYTFTDYYMHWVRQAPGQGLEWMGWIKPNSGGTNSAQRFQGRITMTWDTSISTAYMELSRLRSDDTAVYYCSRGGPVMNYYYYYGMDVWGQGTTVTVSS
VL: NIQMTQSPSSLSASVGDRVTITCRASQSIDSYLNWYQQKPGKAPKLLIYVASSLQSGVPSRFSGSGSGKDFTLTISSLQPEDFATYYCQQSYSIPTFGQGTRLEIK
